Assay results from patent publication US20070185028A1, “Compositions and methods for treatment of protein misfolding and protein aggregation diseases” (priority 2004, published 2007).

Columns and labels:
Type in all cases: biochemical
[1] = target: amyloid beta (1-42) (Homo sapiens, UniProt P05067); assay: Cu+++-induced aggregation of amyloid beta (1-42), light scattering 360 nm; settings: 100 mM Cu+++
Description: In vitro assays were also performed to measure the ability of the human αB crystallin derived peptides identified in Example 1 to inhibit aggregation of Cu^+++-induced amyloid beta (1-42) aggregation. Aggregation assays were performed using routine procedures, in the presence or absence of a synthesized peptide identified in Example 1, in the presence of 100 mM Cu^+++. Aggregation was measured spectrophotometrically as light scattering at a wavelength of 360 nm. Aggregated amyloid-beta was assigned a value of 100% aggregation and used to normalize aggregation in the presence of synthesize peptides.
Aggregation was measured spectrophotometrically as light scattering at a wavelength of 360 nm. Aggregated amyloid-beta was assigned a value of 100% aggregation and used to normalize aggregation in the presence of synthesize peptides. Aggregation was plotted as a bar graph with the standard error for duplicate experiments. The 1 st vertical bar is the scattering measured for aggregated amyloid-beta (100% aggregation) in the presence of 100 mM Cu^+++. The 2nd-4th vertical bars is the scattering from amyloid-beta in the presence of wild type recombinant human αB crystallin. The 5th-13th vertical bars are the scattering of amyloid-beta in the presence of the synthetic peptides, DRFSVNLDVKHFS or LTITSSLSDGV or HGKHEERQDE at selected concentrations. A prefix of 10× represents a 10:1 molar concentration of amyloid-beta to either wild type αB crystallin or its peptides. A prefix of 1× represents a 1:1 molar concentration of amyloid-beta to either wt αB crystallin or its peptides. A prefix of 0.1× represents a 1:10 molar concentration of amyloid-beta to either wt αB crystallin or its peptides.

[2] = test system: βH crystallin; assay: Chaperone assay, thermal aggregation of βH crystallin at 50° C.; settings: 50:1 molar ratio of peptide:βH crystallin, sixty minutes, 340 nm
Description: (§1) The chaperone activity of the peptides was measured as their ability to protect against the thermal aggregation of three chaperone target proteins βH crystallin, ADH and CS in chaperone assays performed at 50° C. (FIG. 19). A non-interactive αB crystallin sequence 111HGKHEERQDE120 was used as the negative control in the chaperone assays (FIG. 19). Based on near and far UVCD, the three target proteins unfolded in the order: CS>>>ADH>>βH crystallin when they were heated at 50° C. for sixty minutes (FIGS. 15 and 16). The thermal aggregation of βH crystallin, ADH and CS was measured as light scattering at λ=340 nm in the presence and absence of each peptide. The chaperone activity of each peptide was calculated as percent protection in which the aggregation of each target protein in the absence of any peptides was set at 0% protection (FIG. 19). The interactive peptides […] and 131LTITSSLSDGV141 were effective inhibitors of aggregation of all three chaperone target proteins.
(§2) A (top left): thermal aggregation of chaperone target proteins βH crystallin, ADH and CS in the absence of peptides was measured as light scattering at λ=340 nm. Each target protein was heated at 50° C. for sixty minutes in the absence or presence of one of the peptides. […] The chaperone activity of each peptide was calculated as percent protection in which the aggregation of each target protein in the absence of any peptides was set at 0% protection. The ability of the 73DRFSVNLDVKHFS85, 131LTITSSLSDGV141 and 111HGKHEERQDE120 to protect against the thermal aggregation of βH crystallin (B: top right), ADH (C: bottom left) and CS (D: bottom right) were tested in vitro (vertical bars). […] A 10:1 molar ratio of peptide:target protein was sufficient in conferring significant protection against the aggregation of CS by 73DRFSVNLDVKHFS85 and 131LTITSSLSDGV141.

[3] = target: ADH (Equus caballus, UniProt P00327); assay: Chaperone assay, thermal aggregation of ADH at 50° C.; settings: 50:1 molar ratio of peptide:ADH, sixty minutes, 340 nm
ADH, sequence (P00327 whole entry): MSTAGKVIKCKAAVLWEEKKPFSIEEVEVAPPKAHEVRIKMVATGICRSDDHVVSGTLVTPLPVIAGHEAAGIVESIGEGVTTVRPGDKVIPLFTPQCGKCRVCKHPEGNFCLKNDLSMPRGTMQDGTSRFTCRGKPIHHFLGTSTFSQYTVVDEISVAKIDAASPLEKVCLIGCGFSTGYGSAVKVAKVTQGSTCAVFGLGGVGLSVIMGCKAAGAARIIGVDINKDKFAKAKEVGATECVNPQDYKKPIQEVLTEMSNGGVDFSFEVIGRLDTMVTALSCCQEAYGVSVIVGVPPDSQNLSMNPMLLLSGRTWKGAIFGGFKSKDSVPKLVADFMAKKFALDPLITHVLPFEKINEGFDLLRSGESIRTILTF
Description: as §1, §2

[4] = target: T1, β2-microglobulin (β2m) (Homo sapiens, UniProt P61769); assay: β2-microglobulin fibrillation ThT assay; settings: five αB crystallin peptides and control
T1 construct: purchased MP Biomedical
T1 sequence (P61769 21-119): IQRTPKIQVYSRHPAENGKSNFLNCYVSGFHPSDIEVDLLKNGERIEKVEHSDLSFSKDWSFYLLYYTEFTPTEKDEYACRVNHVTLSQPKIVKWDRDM
Description: Addition of 5.8 μM αB crystallin peptides, ST, DR, LT, HG, and ER decreased the ThT fluorescence of β2m by 40-64%. When the concentration of the αB crystallin peptides was increased to 29 μM and 145 μM, no further decrease in ThT fluorescence was observed. The negative control peptide AT1 had no effect on β2m fibrillation even at a concentration as high as 290 μM. All five αB crystallin peptides inhibited β2m fibrillation at sub-stoichometric and stoichometric concentrations (5.8 μM and 29 μM).
The Thioflavin T (ThT) fluorescence of β2m in the presence of varying concentrations of αB crystallin peptides and controls was measured. […] When the concentration of the peptides was increased to 29 μM (1:1::peptide:β2m), the αB crystallin peptides decreased the ThT fluorescence by 35-65%. When the concentration of the peptides was increased further to 145 μM ([…]), the αB crystallin peptides decreased the ThT fluorescence by 13-27%. […] The formation and inhibition of β2-microglobulin fibrils was verified microscopically.
β2-microglobulin fibrillation ThT assays were performed as described previously. Raman et al., Biochem J 392:573-81, 2005; Ivanova et al., Proc Natl Acad Sci USA 101:10584-9, 2004. Peptides were dissolved to 2 mM in 0.25% DMSO and diluted accordingly, while β2-microglobulin was dissolved in 25 mM sodium acetate, 25 mM sodium phosphate, pH 2.4. For the 5:1::peptide:β2-microglobulin assay, 10 μL of 430 μM peptide was mixed with 10 μL of 86 μM β2-microglobulin, 7 μl of 25 mM sodium acetate, 25 mM sodium phosphate, pH 2.4 and 3 μL of 1 mM ThT. For the 1:1::peptide:β2-microglobulin assay, 10 μL of 86 μM peptide was mixed with 10 μL of 86 μM (2-microglobulin, 7 μl of 25 mM sodium acetate, 25 mM sodium phosphate, pH 2.4 and 3 μL of 1 mM ThT. For the 1:5::peptide:β2-microglobulin assay, 10 μL of 17.2 μM peptide was mixed with 10 μL of 86 μM β2-microglobulin, 7 μl of 25 mM sodium acetate, 25 mM sodium phosphate, pH 2.4 and 3 μL of 1 mM ThT. ThT fluorescence was measured using a Perkin Elmer Victor^3 V plate reader. Assays were performed in 384-well fluorescence plates in duplicates or triplicates. Samples were incubated at 37° C. ThT fluorescence was measured continuously for 180 minutes. The effect of the peptides and APS was calculated as percentage fibril formation relative to β2-microglobulin alone (100%) at the end of 180 minutes.

[5] = 1:1 and 1:10 molar ratio of amyloid-beta to peptide
[6] = 10:1 molar ratio of amyloid-beta to peptide

Sequence | prevention of Cu+++-induced aggregation of amyloid-beta [1, 5] | prevention of Cu+++-induced aggregation of amyloid-beta [1, 6] | percent protection against thermal aggregation of βH crystallin [2] | percent protection against thermal aggregation of ADH [3] | effect on β2-microglobulin fibril formation, overall [4]
DRFSVNLDVKHFS | equally effective | less effective | approximately 30% | approximately 30% | –
HGKHEERQDE | equally effective | less effective | No protection | No protection | most effective inhibitors
LTITSSLSSDGV | – | – | – | – | most effective inhibitors
